Measurements published in US20250277030A1, “ANTI-NAPI2B ANTIBODIES AND METHODS OF USE” (Zymeworks BC Inc., priority 2022, published 2025).

Tests used:
[1] = Thermal stability by differential scanning calorimetry (DSC); format: physicochemical; conditions: 0.4 mg/mL in PBS, scan 20° C. to 100° C. at 60° C./hr
Method: The thermal stability of the humanized antibody variants was assessed by differential scanning calorimetry (DSC) as described below.
400 μL of purified samples primarily at concentrations of 0.4 mg/mL in PBS were used for DSC analysis with a VP-Capillary DSC (Malvern Panalytical Inc., Westborough, MA). At the start of each DSC run, 5 buffer blank injections were performed to stabilize the baseline, and a buffer injection was placed before each sample injection for referencing. Each sample was scanned from 20° C. to 100° C. at a 60° C./hr rate, with low feedback, 8 sec filter, 3 min pre-scan thermostat, and 70 psi nitrogen pressure. The resulting thermograms were referenced and analyzed using Origin 7 software (OriginLab Corporation, Northampton, MA) to determine melting temperature (Tm) as an indicator of thermal stability.

[2] = molecular target: T1, NaPi2b expressed on IGROV-1 cells (Homo sapiens, UniProt O95436); assay: Cellular binding of bivalent antibodies to IGROV-1 cells by flow cytometry (Example 13); conditions: IGROV-1, 24 hours at 4° C.; NB = no cellular binding
T1 construct: IGROV-1 cells express endogenous NaPi2b at a high level; endogenous in cells; host or cells: IGROV-1
T1 sequence (O95436 1-690): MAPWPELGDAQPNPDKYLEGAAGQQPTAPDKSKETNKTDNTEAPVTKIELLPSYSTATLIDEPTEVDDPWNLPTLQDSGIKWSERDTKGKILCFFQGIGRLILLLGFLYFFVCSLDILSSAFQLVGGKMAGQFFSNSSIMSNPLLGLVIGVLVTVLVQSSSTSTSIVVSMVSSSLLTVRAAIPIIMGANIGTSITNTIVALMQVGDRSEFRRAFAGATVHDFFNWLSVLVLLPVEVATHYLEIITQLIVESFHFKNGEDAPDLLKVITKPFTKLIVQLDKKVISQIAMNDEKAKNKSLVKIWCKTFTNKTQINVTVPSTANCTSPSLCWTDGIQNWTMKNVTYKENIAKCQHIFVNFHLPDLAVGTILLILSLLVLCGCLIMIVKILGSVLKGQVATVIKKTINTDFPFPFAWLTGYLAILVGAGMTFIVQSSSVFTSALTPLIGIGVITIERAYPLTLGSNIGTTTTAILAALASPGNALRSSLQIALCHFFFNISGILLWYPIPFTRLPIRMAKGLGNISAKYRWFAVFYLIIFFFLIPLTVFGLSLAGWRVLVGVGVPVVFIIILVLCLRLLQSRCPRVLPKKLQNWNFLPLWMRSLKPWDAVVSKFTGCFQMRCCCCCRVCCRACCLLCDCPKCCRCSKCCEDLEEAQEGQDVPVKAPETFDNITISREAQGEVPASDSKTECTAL
Method: IGROV-1 cells express endogenous NaPi2b at a high level.
Briefly, cells were seeded at 50,000 cells/well in conical-bottom 96-well plates and treated with test antibody for 24 hours at 4° C. to prevent internalization. Palivizumab (anti-RSV antibody, v22277) was included as a negative control. […] Following incubation, cells were washed and stained with anti-Human IgG Fc AF647 conjugate (Jackson Immuno Research Labs, West Grove, PA; Cat. No. 109-605-098) at 4° C. for 30 min. Following incubation and washing, fluorescence was detected by flow cytometry on a BD LSRFortessa™ Cell Analyzer (BD Biosciences, Franklin Lake, NJ) with 1,000 minimum events collected per well. The AF647/APC-A GeoMean (fluorescence signal geometric mean, proportional to anti-Human AF647 binding) was calculated for the live cell population using FlowJo™ Version 10.8.1 (BD Biosciences, Franklin Lake, NJ) and plotted for each test antibody using GraphPad Prism Version 9 (GraphPad Software, San Diego, CA).

Bmax (MFI) [2]: 43,809 MFI | Curve Hill Slope (h) [2]: 1.2
B1: v29450: humanized anti-NaPi2b IgG1/kappa antibody H3L3; VH SEQ ID NO:26, VL SEQ ID NO:30 (antibody, V domains shown)
VH: QVQLVQSGAEVKKPGASVKMSCKASGFTFTSYNVHWVRQAPGQGLEWIAAISPGNGDLSYAQKFQGRATLTVDTSTSTAYMELSSLRSEDTAVYYCARGRTGMGAVDYWGQGTLVTVSS
VL: DVQMTQSPSSLSASVGDRVTITCRASQDVYSYLNWYQQKPGKAVKLLIYYTSRLQSGVPSRFSGSGSGTDYTLTISSLQPEDIATYYCQQYNIFPWTFGQGTKLEIK
modifications: v29450, v29454, v29458 VH (H3); v29449, v29450, v29451, v29452 VL (L3)
Fab Tm [1]: 81.0 °C
